Assay results from PMC8766458, “Deciphering the mechanism of processive ssDNA digestion by the Dna2-RPA ensemble” (Nature Communications, 2022).
Where a chain is given by its changes, count along the chain named. Names and notes keep the numbering of the source. One block for each binder: values may come before it.

Tests used:
Settings in all cases: both partners purified
[1] = target: T1, RPA–Y193A–GFP (RPA complex harboring rfa1–Y193A) (yeast (S. cerevisiae), UniProt P22336 1-621; P26754 1-273; P26755 1-122, Y193A); assay: single-molecule DNA Curtains (TIRF microscopy); quantum-dot labelled Dna2 variants on ssDNA coated with RPA–GFP variants; NaCl concentration of these results not told in the text (conditions in Supplementary Table 1)
T1 construct: Rfa1, large subunit of yeast RPA, with Y193A in the linker between Rfa1-N and DBD-A; Rfa2, middle subunit of yeast RPA; Rfa3, small subunit of yeast RPA; GFP is fused to one subunit and kept in the assay; preparation not described; also called RPA complex harboring rfa1–Y193A mutant; copies: + +

[2] = target: T2, RPA–GFP (yeast (S. cerevisiae), UniProt P22336 1-621; P26754 1-273; P26755 1-122); assay: as above
T2 construct: Rfa1, large subunit of yeast RPA; Rfa2, middle subunit of yeast RPA; Rfa3, small subunit of yeast RPA; GFP is fused to one subunit and kept in the assay (it is imaged); Coats the ssDNA of the DNA Curtains; also called RPA (green) on ssDNA; copies: + +

[3] = target: T3, dna2-D657A (nuclease-dead Dna2) (S. cerevisiae, UniProt P38859 1-1522, D657A); assay: native gel or EMSA; ternary complex of dna2-D657A variants (20 nM), Rfa1 truncations or mutants (20 nM) and 5 nM dT(20) ssDNA; 150 mM KCl, 30 °C, 4% native gel
T3 construct: Dna2, Saccharomyces cerevisiae, nuclease-dead version; Purified as the other Dna2 variants; FLAG tag used for quantum-dot labelling in DNA Curtains; also called dna2-D657A mutant; source: over-expressed in yeast, purified (Ni-NTA, anti-FLAG-M2 resin)

T2 sequence (P26754 whole entry, chain 2 of 2, the tested form may be a part): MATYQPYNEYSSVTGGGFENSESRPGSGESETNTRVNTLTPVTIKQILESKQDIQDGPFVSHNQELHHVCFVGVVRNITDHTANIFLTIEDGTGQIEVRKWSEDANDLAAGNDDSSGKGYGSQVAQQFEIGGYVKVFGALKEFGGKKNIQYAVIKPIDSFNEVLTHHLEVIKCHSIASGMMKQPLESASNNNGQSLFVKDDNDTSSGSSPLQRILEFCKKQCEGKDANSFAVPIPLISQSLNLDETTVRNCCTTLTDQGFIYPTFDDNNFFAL
T2 sequence (P26755 whole entry, chain 3 of 2, the tested form may be a part): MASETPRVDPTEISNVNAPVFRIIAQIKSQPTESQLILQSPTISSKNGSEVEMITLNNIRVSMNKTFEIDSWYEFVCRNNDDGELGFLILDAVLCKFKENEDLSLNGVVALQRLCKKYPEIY

B1: Dna2 (wild type, FLAG-His6-tagged) (enzyme, S. cerevisiae, UniProt P38859 1-1522, looked up)
chain: MPGTPQKNKRSASISVSPAKKTEEKEIIQNDSKAILSKQTKRKKKYAFAPINNLNGKNTKVSNASVLKSIAVSQVRNTSRTKDINKAVSKSVKQLPNSQVKPKREMSNLSRHHDFTQDEDGPMEEVIWKYSPLQRDMSDKTTSAAEYSDDYEDVQNPSSTPIVPNRLKTVLSFTNIQVPNADVNQLIQENGNEQVRPKPAEISTRESLRNIDDILDDIEGDLTIKPTITKFSDLPSSPIKAPNVEKKAEVNAEEVDKMDSTGDSNDGDDSLIDILTQKYVEKRKSESQITIQGNTNQKSGAQESCGKNDNTKSRGEIEDHENVDNQAKTGNAFYENEEDSNCQRIKKNEKIEYNSSDEFSDDSLIELLNETQTQVEPNTIEQDLDKVEKMVSDDLRIATDSTLSAYALRAKSGAPRDGVVRLVIVSLRSVELPKIGTQKILECIDGKGEQSSVVVRHPWVYLEFEVGDVIHIIEGKNIENKRLLSDDKNPKTQLANDNLLVLNPDVLFSATSVGSSVGCLRRSILQMQFQDPRGEPSLVMTLGNIVHELLQDSIKYKLSHNKISMEIIIQKLDSLLETYSFSIIICNEEIQYVKELVMKEHAENILYFVNKFVSKSNYGCYTSISGTRRTQPISISNVIDIEENIWSPIYGLKGFLDATVEANVENNKKHIVPLEVKTGKSRSVSYEVQGLIYTLLLNDRYEIPIEFFLLYFTRDKNMTKFPSVLHSIKHILMSRNRMSMNFKHQLQEVFGQAQSRFELPPLLRDSSCDSCFIKESCMVLNKLLEDGTPEESGLVEGEFEILTNHLSQNLANYKEFFTKYNDLITKEESSITCVNKELFLLDGSTRESRSGRCLSGLVVSEVVEHEKTEGAYIYCFSRRRNDNNSQSMLSSQIAANDFVIISDEEGHFCLCQGRVQFINPAKIGISVKRKLLNNRLLDKEKGVTTIQSVVESELEQSSLIATQNLVTYRIDKNDIQQSLSLARFNLLSLFLPAVSPGVDIVDERSKLCRKTKRSDGGNEILRSLLVDNRAPKFRDANDDPVIPYKLSKDTTLNLNQKEAIDKVMRAEDYALILGMPGTGKTTVIAEIIKILVSEGKRVLLTSYTHSAVDNILIKLRNTNISIMRLGMKHKVHPDTQKYVPNYASVKSYNDYLSKINSTSVVATTCLGINDILFTLNEKDFDYVILDEASQISMPVALGPLRYGNRFIMVGDHYQLPPLVKNDAARLGGLEESLFKTFCEKHPESVAELTLQYRMCGDIVTLSNFLIYDNKLKCGNNEVFAQSLELPMPEALSRYRNESANSKQWLEDILEPTRKVVFLNYDNCPDIIEQSEKDNITNHGEAELTLQCVEGMLLSGVPCEDIGVMTLYRAQLRLLKKIFNKNVYDGLEILTADQFQGRDKKCIIISMVRRNSQLNGGALLKELRRVNVAMTRAKSKLIIIGSKSTIGSVPEIKSFVNLLEERNWVYTMCKDALYKYKFPDRSNAIDEARKGCGKRTGAKPITSKSKFVSDKPIIKEILQEYES
notes: Dna2 nuclease-helicase, Saccharomyces cerevisiae, wild type; Wild-type protein; In DNA Curtains it was labelled with anti-FLAG quantum dots; in MST with the His-tag labelling kit RED-tris-NTA; also called wild-type Dna2; (His)6-tagged Dna2; source: over-expressed in yeast, purified (Ni-NTA, anti-FLAG-M2 resin)
recruitment relative to wild-type RPA [1]: 80%

B3: Rfa1-N-DBD-A/B (Rfa1–NAB, amino acid 1–435) (domain or fragment, yeast (S. cerevisiae), UniProt P22336 1-435, looked up)
chain: MSSVQLSRGDFHSIFTNKQRYDNPTGGVYQVYNTRKSDGANSNRKNLIMISDGIYHMKALLRNQAASKFQSMELQRGDIIRVIIAEPAIVRERKKYVLLVDDFELVQSRADMVNQTSTFLDNYFSEHPNETLKDEDITDSGNVANQTNASNAGVPDMLHSNSNLNANERKFANENPNSQKTRPIFAIEQLSPYQNVWTIKARVSYKGEIKTWHNQRGDGKLFNVNFLDTSGEIRATAFNDFATKFNEILQEGKVYYVSKAKLQPAKPQFTNLTHPYELNLDRDTVIEECFDESNVPKTHFNFIKLDAIQNQEVNSNVDVLGIIQTINPHFELTSRAGKKFDRRDITIVDDSGFSISVGLWNQQALDFNLPEGSVAAIKGVRVTDFGGKSLSMGFSSTLIPNPEIPEAYALKGWYDSKGRNANFITLKQEPGMGGQ
notes: Rfa1 of yeast RPA, residues 1-435 (N, DBD-A and DBD-B domains); The 6xHis tag can optionally be removed by TEV protease; also called NAB polypeptide; pHis–Rfa1 1–435; source: E. coli BL21 codon plus, purified (Ni-NTA, Superdex 200)
binding result [3]: binds

Other lines, results leading:

fold less recruitment than wild-type Dna2 [2]: ~2 fold
B2: dna2-AC (dna2-D357A,E358A,D361A,D362A,E366A), FLAG-His6-tagged (enzyme, S. cerevisiae, UniProt P38859 1-1522, looked up)
chain: B1 chain with D357A, E358A, D361A, D362A, E366A
notes: Dna2, Saccharomyces cerevisiae, with all acidic residues of the second acidic patch (amino acid 355-366) changed to alanine; source: over-expressed in yeast, purified (Ni-NTA, anti-FLAG-M2 resin)

binding result [3]: binds
B4: rfa1–NAB–K45E (pHis-Rfa1 1-435 K45E) (domain or fragment, yeast (S. cerevisiae), UniProt P22336 1-435, looked up)
chain: B3 chain with K45E
notes: Rfa1 of yeast RPA, residues 1-435, charge reversal in the basic cleft of Rfa1-N; also called rfa1–t11; rfa1–K45E; source: E. coli BL21 codon plus, purified (Ni-NTA, Superdex 200)
